The values that follow come from publication PMC10437922, “DNAJB3 attenuates ER stress through direct interaction with AKT” (PLOS ONE, 2023).

The target of the test is T1, His-AKT1 (human, UniProt P31749 1-480).
T1 construct: 'human' stands only before DNAJB3; also called pH6K-AKT1; source: E. coli BL21 (DE3), purified (Ni-NTA, gel filtration Superdex 200)
Kind of test: ITC; DNAJB3 (250 uM, syringe) titrated into 20 uM protein in the cell; 25°C; 25 mM Tris-HCl pH 8.0, 150 mM NaCl, 1 mM DTT; one-site binding model. To be noted: both partners purified. (In general: Isothermal titration calorimetry measures the heat released or taken up as one component is titrated into another.)

A word on the Kd: it is the concentration at which binding is half-saturated. A higher Kd goes with weaker binding. Usually stoichiometry N stands for the number of molecules, sites or subunits per partner or assembly.

T1 sequence (P31749 whole entry): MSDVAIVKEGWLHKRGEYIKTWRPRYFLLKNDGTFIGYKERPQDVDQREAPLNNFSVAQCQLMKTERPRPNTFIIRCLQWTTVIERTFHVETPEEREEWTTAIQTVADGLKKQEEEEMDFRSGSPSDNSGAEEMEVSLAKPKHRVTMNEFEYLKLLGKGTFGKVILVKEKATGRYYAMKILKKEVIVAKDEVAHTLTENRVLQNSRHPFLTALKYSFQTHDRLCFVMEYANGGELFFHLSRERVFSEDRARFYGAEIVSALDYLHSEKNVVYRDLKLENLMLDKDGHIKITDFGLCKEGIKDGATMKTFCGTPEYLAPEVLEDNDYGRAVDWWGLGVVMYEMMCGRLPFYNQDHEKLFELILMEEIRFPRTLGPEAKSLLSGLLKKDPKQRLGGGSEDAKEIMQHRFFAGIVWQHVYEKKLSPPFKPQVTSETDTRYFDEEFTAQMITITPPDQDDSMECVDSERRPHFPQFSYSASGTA

B1: His-DNAJB3 (natural protein)
chain: not shown
notes: 6xHIS residues'; also called hDNAJB3; pH6K-DNAJB3; source: E. coli BL21 (DE3), purified (Ni-NTA, gel filtration Superdex 200)
Take B1: the Kd is approximately 62 µM and the “stoichiometry N” value turned out to be 0.84.
